Results from paper PMC5618490, “Arabidopsis E3 Ubiquitin Ligases PUB22 and PUB23 Negatively Regulate Drought Tolerance by Targeting ABA Receptor PYL9 for Degradation” (International Journal of Molecular Sciences, 2017).

T1: MBP-PUB22 (Arabidopsis thaliana, UniProt Q9SVC6 1-435)
T1 construct: PUB22, plant U-box E3 ubiquitin ligase, Arabidopsis thaliana; Kept on the amylose resin for the pull-down; source: E. coli BL21 (DE3), purified (amylose resin); not shown: MBP, N-terminal, kept
T1 sequence (looked up): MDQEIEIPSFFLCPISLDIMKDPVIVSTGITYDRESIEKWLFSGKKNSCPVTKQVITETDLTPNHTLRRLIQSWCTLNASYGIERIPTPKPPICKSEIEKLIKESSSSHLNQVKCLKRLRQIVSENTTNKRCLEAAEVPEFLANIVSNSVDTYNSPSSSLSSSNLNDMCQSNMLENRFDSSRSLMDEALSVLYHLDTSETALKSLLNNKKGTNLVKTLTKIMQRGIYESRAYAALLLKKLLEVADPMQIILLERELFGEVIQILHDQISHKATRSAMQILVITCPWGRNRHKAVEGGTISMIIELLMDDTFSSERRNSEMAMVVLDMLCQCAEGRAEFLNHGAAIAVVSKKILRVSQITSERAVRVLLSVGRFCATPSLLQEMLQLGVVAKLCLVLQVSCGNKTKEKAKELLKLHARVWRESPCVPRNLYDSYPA

T2: MBP-PUB23 (Arabidopsis thaliana, UniProt Q84TG3 1-411)
T2 construct: PUB23, plant U-box E3 ubiquitin ligase, Arabidopsis thaliana; Kept on the amylose resin for the pull-down; source: E. coli BL21 (DE3), purified (amylose resin); not shown: MBP, N-terminal, kept
T2 sequence (looked up): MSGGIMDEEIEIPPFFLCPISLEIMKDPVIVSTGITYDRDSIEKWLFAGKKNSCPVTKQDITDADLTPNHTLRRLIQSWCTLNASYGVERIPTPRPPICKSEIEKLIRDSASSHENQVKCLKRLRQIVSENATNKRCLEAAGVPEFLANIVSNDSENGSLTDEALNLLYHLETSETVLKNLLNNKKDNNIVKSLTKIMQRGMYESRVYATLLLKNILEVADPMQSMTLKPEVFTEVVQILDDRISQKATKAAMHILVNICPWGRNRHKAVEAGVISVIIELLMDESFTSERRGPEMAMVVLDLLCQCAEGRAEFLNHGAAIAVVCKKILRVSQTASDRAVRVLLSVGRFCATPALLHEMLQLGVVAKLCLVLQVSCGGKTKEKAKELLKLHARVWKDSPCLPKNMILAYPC

B1: GST-PYL8 (receptor, Arabidopsis thaliana, UniProt Q9FGM1 1-188, looked up)
chain: MEANGIENLTNPNQEREFIRRHHKHELVDNQCSSTLVKHINAPVHIVWSLVRRFDQPQKYKPFISRCVVKGNMEIGTVREVDVKSGLPATRSTERLELLDDNEHILSIRIVGGDHRLKNYSSIISLHPETIEGRIGTLVIESFVVDVPEGNTKDETCYFVEALIKCNLKSLADISERLAVQDTTESRV
notes: PYL8, PYR/PYL/RCAR family ABA receptor, Arabidopsis thaliana; cDNA fused to the C terminus of the GST tag in pCold-GST; source: E. coli DE3 cells, purified (Glutathione Sepharose 4B); not shown: GST, N-terminal, kept
B2: GST-PYL9 (receptor, Arabidopsis thaliana, UniProt Q84MC7 1-187, looked up)
chain: MMDGVEGGTAMYGGLETVQYVRTHHQHLCRENQCTSALVKHIKAPLHLVWSLVRRFDQPQKYKPFVSRCTVIGDPEIGSLREVNVKSGLPATTSTERLELLDDEEHILGIKIIGGDHRLKNYSSILTVHPEIIEGRAGTMVIESFVVDVPQGNTKDETCYFVEALIRCNLKSLADVSERLASQDITQ
notes: PYL9, PYR/PYL/RCAR family ABA receptor, Arabidopsis thaliana; cDNA fused to the C terminus of the GST tag in pCold-GST between EcoRI and SalI; source: E. coli, purified (Glutathione Sepharose 4B, eluted with reduced glutathione); not shown: GST, N-terminal, kept
B3: GST-PYL7 (receptor, Arabidopsis thaliana, UniProt Q1ECF1 1-211, looked up)
chain: MEMIGGDDTDTEMYGALVTAQSLRLRHLHHCRENQCTSVLVKYIQAPVHLVWSLVRRFDQPQKYKPFISRCTVNGDPEIGCLREVNVKSGLPATTSTERLEQLDDEEHILGINIIGGDHRLKNYSSILTVHPEMIDGRSGTMVMESFVVDVPQGNTKDDTCYFVESLIKCNLKSLACVSERLAAQDITNSIATFCNASNGYREKNHTETNL
notes: PYL7, PYR/PYL/RCAR family ABA receptor, Arabidopsis thaliana; cDNA fused to the C terminus of the GST tag in pCold-GST; source: E. coli DE3 cells, purified (Glutathione Sepharose 4B); not shown: GST, N-terminal, kept
B4: GST-PYL5 (receptor, Arabidopsis thaliana, UniProt Q9FLB1 1-203, looked up)
chain: MRSPVQLQHGSDATNGFHTLQPHDQTDGPIKRVCLTRGMHVPEHVAMHHTHDVGPDQCCSSVVQMIHAPPESVWALVRRFDNPKVYKNFIRQCRIVQGDGLHVGDLREVMVVSGLPAVSSTERLEILDEERHVISFSVVGGDHRLKNYRSVTTLHASDDEGTVVVESYIVDVPPGNTEEETLSFVDTIVRCNLQSLARSTNRQ
notes: PYL5, PYR/PYL/RCAR family ABA receptor, Arabidopsis thaliana; cDNA fused to the C terminus of the GST tag in pCold-GST; source: E. coli DE3 cells, purified (Glutathione Sepharose 4B); not shown: GST, N-terminal, kept

What was measured:
MBP-PUB22 = molecular target: T1, MBP-PUB22; test: pull-down; MBP-PUBs or MBP on amylose resin incubated with GST-PYLs for 1 h at room temperature in 20 mM Tris-HCl pH 7.2, 10 mM MgCl2, 2 mM DTT; washed five times; blot with anti-GST antibody; details: both partners purified
MBP-PUB23 = molecular target: T2, MBP-PUB23; test: as above; details: both partners purified

Binder	binding result (MBP-PUB22)	binding result (MBP-PUB23)
B1	binds	–
B2	–	binds
B3	binds	–
B4	binds	–
